The target of this test is T1, human CD40 (human, UniProt P25942 21-277).
T1 construct: Endogenous CD40 on Ramos cells (ATCC CRL-1596), 'which expresses human CD40'
Put plainly: flow cytometry (FACS, MFI) on Ramos cells expressing human CD40, R-PE anti-human antibody detection. Here is the method:
The Ramos cell line was suspended in staining buffer (SB) of PBS containing 0.1% NaN₃, 2 mM EDTA, and 2% FCS at a density of […]. The cell suspension (100 μL/well) was dispensed into a 96-well round-bottom plate (manufactured by Becton Dickinson). The purified antibody (50 μL) was added thereto, followed by incubation at ice temperature for 30 minutes. As negative control, an anti-human IgG2 antibody against 2,4-dinitrophenol was used and the purified antibodies (50 μL) were similarly added, followed by incubation at ice temperature for 15 minutes. After the cells were washed with SB, 50 μL of 250-fold diluted R-PE fluorescence-labeled anti-human antibodies (manufactured by Southern Biotechnology) was added thereto, followed by incubation at ice temperature for 15 minutes. The cells were washed twice with SB and suspended in 300 to 500 μL of FACS buffer. And the fluorescence intensity (MFI) of individual cells was measured by FACS (FACScalibur, manufactured by Becton Dickinson).
(A flow cytometer gives signals particle by particle.)

T1 sequence (P25942 21-277 limits assumed): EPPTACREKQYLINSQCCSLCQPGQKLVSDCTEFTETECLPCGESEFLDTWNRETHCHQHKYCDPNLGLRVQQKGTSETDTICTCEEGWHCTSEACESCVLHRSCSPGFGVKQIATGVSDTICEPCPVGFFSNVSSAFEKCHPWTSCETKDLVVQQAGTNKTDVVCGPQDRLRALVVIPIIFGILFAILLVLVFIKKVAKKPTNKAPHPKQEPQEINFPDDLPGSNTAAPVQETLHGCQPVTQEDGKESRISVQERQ

B1: IgG2-AAS(341) antibody (antibody)
heavy: QVQLQQSGPGLVKPSQTLSLTCAISGDSVSSNSATWNWIRQSPSRDLEWLGRTYYRSKWYRDYVGSVKSRIIINPDTSNNQFSLQLNSVTPEDTAIYYCTRAQWLGGDYPYYYSMDVWGQGTTVTVSSASTKGPSVFPLAPCSRSTSESTAALGCLVKDYFPEPVTVSWNSGALTSGVHTFPAVLQSSGLYSLSSVVTVPSSNFGTQTYTCNVDHKPSNTKVDKTVERKCCVECPPCPAPPAAAPSVFLFPPKPKDTLMISRTPEVTCVVVDVSHEDPEVQFNWYVDGVEVHNAKTKPREEQFNSTFRVVSVLTVVHQDWLNGKEYKCKVSNKGLPASIEKTISKTKGQPREPQVYTLPPSREEMTKNQVSLTCLVKGFYPSDIAVEWESNGQPENNYKTTPPMLDSDGSFFLYSKLTVDKSRWQQGNVFSCSVMHEALHNHYTQKSLSLSPGK
light: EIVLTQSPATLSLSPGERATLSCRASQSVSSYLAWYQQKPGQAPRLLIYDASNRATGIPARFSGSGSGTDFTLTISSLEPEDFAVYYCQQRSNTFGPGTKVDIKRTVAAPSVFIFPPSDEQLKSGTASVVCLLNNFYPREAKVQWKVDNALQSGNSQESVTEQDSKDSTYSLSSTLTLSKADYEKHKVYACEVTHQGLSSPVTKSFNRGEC
notes: kappa light chain; Signal peptides (1-20 of each chain, estimated by SignalP) are left out; Expressed transiently in 293 cells and purified on protein A
On to B1, for which the binding result is reported as “binds”.

B2: IgG2-S(341) antibody (antibody)
heavy: QVQLQQSGPGLVKPSQTLSLTCAISGDSVSSNSATWNWIRQSPSRDLEWLGRTYYRSKWYRDYVGSVKSRIIINPDTSNNQFSLQLNSVTPEDTAIYYCTRAQWLGGDYPYYYSMDVWGQGTTVTVSSASTKGPSVFPLAPCSRSTSESTAALGCLVKDYFPEPVTVSWNSGALTSGVHTFPAVLQSSGLYSLSSVVTVPSSNFGTQTYTCNVDHKPSNTKVDKTVERKCCVECPPCPAPPVAGPSVFLFPPKPKDTLMISRTPEVTCVVVDVSHEDPEVQFNWYVDGVEVHNAKTKPREEQFNSTFRVVSVLTVVHQDWLNGKEYKCKVSNKGLPASIEKTISKTKGQPREPQVYTLPPSREEMTKNQVSLTCLVKGFYPSDIAVEWESNGQPENNYKTTPPMLDSDGSFFLYSKLTVDKSRWQQGNVFSCSVMHEALHNHYTQKSLSLSPGK
light: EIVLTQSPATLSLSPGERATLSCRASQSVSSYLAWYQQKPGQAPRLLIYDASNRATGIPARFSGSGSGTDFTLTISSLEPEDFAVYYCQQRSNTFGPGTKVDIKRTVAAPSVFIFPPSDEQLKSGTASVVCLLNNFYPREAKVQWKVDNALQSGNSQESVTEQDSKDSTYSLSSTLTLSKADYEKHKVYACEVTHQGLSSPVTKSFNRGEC
In the case of B2, the binding result is reported as “binds”.
